The values below come from US20150253341A1 (Merck Sharp & Dohme, published 2015).

The experiment deals with human Tau protein (human, UniProt P10636-8 1-441, limits assumed). As to the kind of experiment: method not stated.
human Tau protein, sequence (P10636 other isoform, or with tags, fused parts or gaps limits assumed): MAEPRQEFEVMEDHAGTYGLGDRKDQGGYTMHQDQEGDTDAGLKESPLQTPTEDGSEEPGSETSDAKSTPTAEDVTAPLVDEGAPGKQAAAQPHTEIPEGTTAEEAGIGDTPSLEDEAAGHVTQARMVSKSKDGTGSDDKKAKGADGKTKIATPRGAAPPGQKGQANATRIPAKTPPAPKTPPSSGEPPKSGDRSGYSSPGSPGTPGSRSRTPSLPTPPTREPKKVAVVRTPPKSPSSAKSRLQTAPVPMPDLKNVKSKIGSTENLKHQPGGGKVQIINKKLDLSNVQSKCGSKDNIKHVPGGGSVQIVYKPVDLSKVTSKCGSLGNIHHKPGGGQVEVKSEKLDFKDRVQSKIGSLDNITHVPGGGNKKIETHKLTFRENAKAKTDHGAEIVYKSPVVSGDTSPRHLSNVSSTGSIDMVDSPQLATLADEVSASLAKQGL

B1: mouse monoclonal anti-Tau antibody clone 13A6 (antibody, V domains shown)
VH: EVQLQQSGAELVRPGASVKLPCTASGFNIKDDYMNWVMQRPERGLEWIGWIDPENGDTAYASKFQGKATMTADTSSNTAYLQLSSLTSEDTAVYYCTSGGRFDYWGQGTSLTVSS
VL: DVLMTQTPLSLPVSLGDQASISCRSSQSIVHSNGSTYLEWYLQKPGQSPKLLIYKVSNRFSGVPDRFSGSGSGTDFTLKINRVEAEDLGVYYCFQGSHVPWTFGGGTKLEIK
notes: Mouse monoclonal from a hybridoma; also called mAb 13A6; antibody 13A6
With B1, the affinity, expressed as Kd, was 9.7 nM.
